Measured values from IntAct's records for PubMed 11001931.

Molecular target: fhl2_human FHL2 (UniProt Q14192)
Sequence (Q14192 whole entry): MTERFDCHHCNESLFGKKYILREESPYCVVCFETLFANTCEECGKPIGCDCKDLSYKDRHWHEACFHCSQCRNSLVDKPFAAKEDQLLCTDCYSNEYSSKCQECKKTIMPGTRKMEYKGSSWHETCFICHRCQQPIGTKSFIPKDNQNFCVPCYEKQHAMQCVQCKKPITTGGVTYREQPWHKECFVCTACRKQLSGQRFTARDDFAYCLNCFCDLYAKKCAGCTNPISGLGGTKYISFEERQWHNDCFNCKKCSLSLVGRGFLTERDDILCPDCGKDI

Chain of Presenilin-2 (Homo sapiens), P49810 R275A (P49810 whole entry R275A): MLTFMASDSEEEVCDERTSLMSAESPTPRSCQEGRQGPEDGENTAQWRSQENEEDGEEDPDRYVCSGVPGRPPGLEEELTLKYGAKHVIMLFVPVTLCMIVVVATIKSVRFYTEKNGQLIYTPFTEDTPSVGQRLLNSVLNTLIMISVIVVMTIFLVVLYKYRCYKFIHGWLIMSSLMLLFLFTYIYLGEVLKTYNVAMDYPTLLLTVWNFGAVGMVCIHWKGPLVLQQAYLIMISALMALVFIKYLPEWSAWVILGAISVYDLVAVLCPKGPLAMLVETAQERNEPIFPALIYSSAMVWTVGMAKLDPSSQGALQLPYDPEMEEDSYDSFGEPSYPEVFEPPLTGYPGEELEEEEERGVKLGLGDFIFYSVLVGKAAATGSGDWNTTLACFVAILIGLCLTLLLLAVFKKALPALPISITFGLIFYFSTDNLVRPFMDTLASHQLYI
Chain of Presenilin-2 (Homo sapiens), P49810 V278A (P49810 whole entry V278A): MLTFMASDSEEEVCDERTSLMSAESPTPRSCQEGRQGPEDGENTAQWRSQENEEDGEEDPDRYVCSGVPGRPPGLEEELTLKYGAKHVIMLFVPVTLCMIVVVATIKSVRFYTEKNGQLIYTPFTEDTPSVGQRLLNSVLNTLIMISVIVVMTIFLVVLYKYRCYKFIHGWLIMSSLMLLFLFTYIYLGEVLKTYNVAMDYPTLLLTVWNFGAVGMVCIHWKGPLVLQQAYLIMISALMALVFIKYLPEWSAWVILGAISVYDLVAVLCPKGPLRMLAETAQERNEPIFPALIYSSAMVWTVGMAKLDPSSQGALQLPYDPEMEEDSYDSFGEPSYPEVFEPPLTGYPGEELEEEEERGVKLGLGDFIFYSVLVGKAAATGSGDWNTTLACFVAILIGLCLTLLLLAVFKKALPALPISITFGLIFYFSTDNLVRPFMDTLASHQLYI
Chain of Presenilin-2 (Homo sapiens), P49810 G272A (P49810 whole entry G272A): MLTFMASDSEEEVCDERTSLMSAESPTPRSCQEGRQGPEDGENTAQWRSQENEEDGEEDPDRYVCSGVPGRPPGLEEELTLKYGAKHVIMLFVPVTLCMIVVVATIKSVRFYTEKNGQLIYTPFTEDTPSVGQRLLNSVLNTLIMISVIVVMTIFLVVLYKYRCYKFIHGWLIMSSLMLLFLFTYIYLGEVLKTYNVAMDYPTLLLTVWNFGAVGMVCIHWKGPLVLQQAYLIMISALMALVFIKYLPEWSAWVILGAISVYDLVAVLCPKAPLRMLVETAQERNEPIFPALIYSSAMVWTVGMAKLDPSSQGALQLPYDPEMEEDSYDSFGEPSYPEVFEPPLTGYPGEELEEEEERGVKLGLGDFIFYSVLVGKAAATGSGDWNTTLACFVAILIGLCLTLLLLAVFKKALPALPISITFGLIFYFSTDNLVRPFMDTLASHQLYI
Chain of Presenilin-2 (Homo sapiens), P49810 L274A (P49810 whole entry L274A): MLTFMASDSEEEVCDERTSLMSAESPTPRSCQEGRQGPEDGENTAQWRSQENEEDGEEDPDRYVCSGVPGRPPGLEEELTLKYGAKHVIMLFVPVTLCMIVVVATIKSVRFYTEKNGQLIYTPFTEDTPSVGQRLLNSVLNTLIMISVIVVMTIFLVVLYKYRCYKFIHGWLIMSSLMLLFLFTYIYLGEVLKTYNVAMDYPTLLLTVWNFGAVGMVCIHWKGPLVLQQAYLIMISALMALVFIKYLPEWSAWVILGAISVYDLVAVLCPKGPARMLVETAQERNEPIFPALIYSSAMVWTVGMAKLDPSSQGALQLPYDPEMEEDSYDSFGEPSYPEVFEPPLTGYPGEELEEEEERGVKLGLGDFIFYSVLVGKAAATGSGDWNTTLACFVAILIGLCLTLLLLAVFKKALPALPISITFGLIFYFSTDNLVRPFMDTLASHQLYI
Chain of Presenilin-2 (Homo sapiens), P49810 P270A (P49810 whole entry P270A): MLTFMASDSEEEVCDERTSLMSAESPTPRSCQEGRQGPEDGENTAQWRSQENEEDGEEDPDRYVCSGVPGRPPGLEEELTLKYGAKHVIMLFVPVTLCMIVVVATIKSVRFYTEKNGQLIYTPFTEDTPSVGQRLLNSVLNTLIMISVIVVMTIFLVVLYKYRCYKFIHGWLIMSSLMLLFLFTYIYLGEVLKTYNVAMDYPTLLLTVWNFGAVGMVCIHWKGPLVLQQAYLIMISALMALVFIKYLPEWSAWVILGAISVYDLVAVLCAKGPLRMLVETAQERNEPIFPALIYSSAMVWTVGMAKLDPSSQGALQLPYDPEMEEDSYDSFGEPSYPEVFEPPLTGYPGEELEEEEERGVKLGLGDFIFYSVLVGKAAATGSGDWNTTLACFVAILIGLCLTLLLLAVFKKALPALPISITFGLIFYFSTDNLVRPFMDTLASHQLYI
Chain of Presenilin-2 (Homo sapiens), P49810 L277A (P49810 whole entry L277A): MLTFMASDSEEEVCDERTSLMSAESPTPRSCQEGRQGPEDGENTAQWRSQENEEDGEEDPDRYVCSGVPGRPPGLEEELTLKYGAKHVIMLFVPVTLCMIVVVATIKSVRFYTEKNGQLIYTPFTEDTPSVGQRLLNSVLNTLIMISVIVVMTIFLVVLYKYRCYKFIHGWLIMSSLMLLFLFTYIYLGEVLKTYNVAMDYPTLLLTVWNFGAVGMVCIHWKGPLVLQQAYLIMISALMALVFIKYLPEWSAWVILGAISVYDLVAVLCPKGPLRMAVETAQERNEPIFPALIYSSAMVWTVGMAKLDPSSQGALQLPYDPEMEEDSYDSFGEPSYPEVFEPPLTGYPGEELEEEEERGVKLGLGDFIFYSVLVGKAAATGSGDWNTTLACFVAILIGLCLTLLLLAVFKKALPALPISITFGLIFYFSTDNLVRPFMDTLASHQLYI
Chain of Presenilin-2 (Homo sapiens), P49810 M276A (P49810 whole entry M276A): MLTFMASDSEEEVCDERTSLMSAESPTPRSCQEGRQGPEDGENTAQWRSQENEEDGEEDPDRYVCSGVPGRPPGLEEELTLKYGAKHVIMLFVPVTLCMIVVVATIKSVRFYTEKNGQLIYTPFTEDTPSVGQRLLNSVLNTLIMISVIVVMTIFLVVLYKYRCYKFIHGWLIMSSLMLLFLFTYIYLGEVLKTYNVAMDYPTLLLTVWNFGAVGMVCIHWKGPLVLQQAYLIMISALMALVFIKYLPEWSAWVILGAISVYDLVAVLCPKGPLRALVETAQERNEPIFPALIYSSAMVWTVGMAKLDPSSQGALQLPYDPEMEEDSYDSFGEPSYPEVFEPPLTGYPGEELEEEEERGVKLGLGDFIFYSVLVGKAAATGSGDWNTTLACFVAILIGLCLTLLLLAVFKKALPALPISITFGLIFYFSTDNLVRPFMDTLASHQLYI
Chain of Presenilin-2 (Homo sapiens), P49810 P273A (P49810 whole entry P273A): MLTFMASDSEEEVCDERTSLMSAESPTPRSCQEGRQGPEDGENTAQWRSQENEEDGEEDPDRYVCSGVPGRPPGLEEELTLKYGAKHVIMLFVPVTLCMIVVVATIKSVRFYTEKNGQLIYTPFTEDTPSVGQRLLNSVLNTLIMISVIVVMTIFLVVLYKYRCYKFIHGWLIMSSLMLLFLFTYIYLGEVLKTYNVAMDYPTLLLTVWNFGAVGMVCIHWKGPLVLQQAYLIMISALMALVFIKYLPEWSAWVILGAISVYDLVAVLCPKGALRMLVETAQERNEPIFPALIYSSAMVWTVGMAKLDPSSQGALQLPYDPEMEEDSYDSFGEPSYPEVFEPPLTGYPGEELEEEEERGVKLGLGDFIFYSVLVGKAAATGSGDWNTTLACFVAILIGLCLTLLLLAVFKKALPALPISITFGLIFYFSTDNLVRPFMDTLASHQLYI
Chain of Presenilin-2 (Homo sapiens), P49810 K271A (P49810 whole entry K271A): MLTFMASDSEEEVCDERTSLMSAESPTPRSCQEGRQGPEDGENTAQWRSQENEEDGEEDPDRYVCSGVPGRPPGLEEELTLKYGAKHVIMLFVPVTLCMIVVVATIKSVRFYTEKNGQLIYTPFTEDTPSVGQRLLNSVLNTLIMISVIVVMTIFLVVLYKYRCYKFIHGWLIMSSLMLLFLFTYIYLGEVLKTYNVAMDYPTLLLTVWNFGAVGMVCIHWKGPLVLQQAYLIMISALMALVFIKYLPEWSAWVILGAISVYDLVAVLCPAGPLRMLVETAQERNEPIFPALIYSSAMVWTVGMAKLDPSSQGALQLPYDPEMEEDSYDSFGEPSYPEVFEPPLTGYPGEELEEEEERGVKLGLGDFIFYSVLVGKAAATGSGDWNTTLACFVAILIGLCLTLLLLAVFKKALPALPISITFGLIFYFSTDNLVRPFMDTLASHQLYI
Chain of Presenilin-2 (Homo sapiens), P49810 E279A (P49810 whole entry E279A): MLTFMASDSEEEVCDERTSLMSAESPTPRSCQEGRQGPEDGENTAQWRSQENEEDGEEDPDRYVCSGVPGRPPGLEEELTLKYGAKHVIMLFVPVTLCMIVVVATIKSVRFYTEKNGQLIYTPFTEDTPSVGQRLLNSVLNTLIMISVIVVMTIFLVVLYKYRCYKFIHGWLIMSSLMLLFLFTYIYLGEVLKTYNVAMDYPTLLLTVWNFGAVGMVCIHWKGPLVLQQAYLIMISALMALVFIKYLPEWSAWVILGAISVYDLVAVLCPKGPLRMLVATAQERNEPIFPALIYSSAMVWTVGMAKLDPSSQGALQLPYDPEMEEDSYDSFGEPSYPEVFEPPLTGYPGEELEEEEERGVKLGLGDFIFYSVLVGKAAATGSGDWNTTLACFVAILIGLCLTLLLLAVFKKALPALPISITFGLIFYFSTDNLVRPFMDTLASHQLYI

Substance | effect of a mutation on the interaction
Presenilin-2 (Homo sapiens), P49810 L274A | decreasing interaction strength
Presenilin-2 (Homo sapiens), P49810 L277A | decreasing interaction strength
Presenilin-2 (Homo sapiens), P49810 P270A | decreasing interaction strength
Presenilin-2 (Homo sapiens), P49810 R275A | disrupting interaction strength
Presenilin-2 (Homo sapiens), P49810 E279A | decreasing interaction strength
Presenilin-2 (Homo sapiens), P49810 P273A | decreasing interaction strength
Presenilin-2 (Homo sapiens), P49810 M276A | decreasing interaction strength

Second part, the substance after the results:

effect of a mutation on the interaction | Substance
decreasing interaction strength | Presenilin-2 (Homo sapiens), P49810 V278A
decreasing interaction strength | Presenilin-2 (Homo sapiens), P49810 G272A
with no effect | Presenilin-2 (Homo sapiens), P49810 K271A
